Assay results published in a protein production outcome set (Wang et al. 2014).

Assay: label from the status in PepcDB records

Row | Sequence | protein production
1 | MTEDQAFWNAFAPDYAAAEQASRLPIAHDVIAWLRSTQLLPAHSAVDLAAGTGRYAVQMMPWVQELTLIDWSSAMLAFAKERMHQQADTKAQFIVADWRKLHKPLNADMLFVSQLPTLKPQDLKMLMNWASQTVVLNFQTAQSDALLEQAASLLGLQLPPVYQADPARMISFKVWLTAQRIPFQSHSLTYEIEEQTTLSDLLPDLATPIGLKTAASLAKAITGHENTHVQVTDRLTYTYTQLVWHVLEHHHHHH | failed
2 | MKVIEVTHPIQSNQFITENVAMAFGFFDGMHRGHDKVFQVLDEKAKEHQLKKAVMTFDPHPSVVLNPERKRTTYLTPLSDKLEMIAEHGIDYCIVINFSSRFANVTSDDFIKNYIINNHVKEVIAGFDFTFGKFGKGNMTVLQESKAFNTTIVGKQEMDSEKISTTAIRQALTDGHLQKANDELGYIYRIKGTVVQGEKRGRTIGFPTANVQPSDDYVLPKKGVYAVSMEIGPESKLHRGVANVGVKPTFHDPTRAELVIEVNIFDFNENIYGERVTVYWHHFLRPEVKFDGIDPLVKQMNEDKAQAKHLLSIDFDDDISYNI | failed
3 | MGTTGFTIIDLIILIVYLLAVLVAGIYFSKKEMKGKEFFKGDGSVPWYVTSVSIFATMLSPISFLGLAGSSYAGSWILWFAQLGMVVAIPLTIRFILPIFARIDIDTAYDYLDKRFNSKALRIISALLFIIYQLGRMSIIMYLPSAGLSVLTGIDINILIILMGVVAIVYSYTGGLKSVLWTDFIQGVILISGVVLALFVLIANIKGGFGAVAETLANGKFLAANEKLFDPNLLSNSIFLIVMGSGFTILSSYASSQDLVQRFTTTQNIKKLNKMLFTNGVLSLATATVFYLIGTGLYVFYQVQNADSAASNIPQDQIFMYFIAYQLPVGITGLILAAIYAASQSTISTGLNSVATSWTLDIQDVISKNMSDNRRTKIAQFVSLAVGLFSIGVSIVMAHSDIKSAYEWFNSFMGLVLGLLGGVFILGFVSKKANKQGAYAALIVSTIVMVFIKYFLPPTAVSYWAYSLISISVSVVSGYIVSVLTGNKVSAPKYTTIHDITEIKADSSWEVRH | failed
4 | PKAPVTGYVRFLNERREQIRTRHPDLPFPEITKMLGAEWSKLQPAEKQRYLDEAEKEKQQYLKELWAYQQSEAYKVCTE | not failed
5 | MSCTGFWRKLASGEECGAAARLLGAVLAIPAALYGLVVRLRALAYARGLSTVRHLDRPVISVGNLTVGGTGKTPMVAYLARRLMARGKRVAVISRGYGGSLEGETRIVSDGRTIVLSAAEAGDEPVHLATSVPGLMTVIGTDRYTAGLLALEQLDPDVFILDDGYQHLRLHRDLNILLMDCNRPLGNGRTLPAGLLREPQTAVRRADLVVYTRCTGGKAPAVHGMIPSCRAGHALTGAALLPDGEVQPLAALRGLRGVACAGIAEPEGFFDALRREGLDIVAAIPFADHASYGEREVSTLREAAAGADYLITTGKDGVKLSAHLARLLPVYATVLEMRPLDPAPLEAALDKVL | failed
6 | MAFVVNGNEYNLAYYLTDEIYPKWATFIQSISLPQDEKASLFATNQEACRKDVERAFGVLQARFAIVKHPALIWDKIKIGNIMRACIILHNMIVEDERDGYTQYDVSDFAHPESASSSQVDFTYSTDMPSNLGNMMATRTRLRDRTKHEHLKADLVEHIWQKFGPIQA | failed
7 | MQDLTSAAAYYHQSMMMTTAKQNQPELPEQEQLKCPRCDSPNTKFCYYNNYNLSQPRHFCKNCRRYWTKGGALRNIPVGGGTRKSNKRSGSSPSSNLKNQTVAEKPDHHGSGSEEKEERVSGQEMNPTRMLYGLPVGDPNGASFSSLLASNMQMGGLVYESGSRWLPGMDLGLGSVRRSDDTWTDLAMNRMEKN | failed
8 | AQELAHKINHIVASRPATAAMLQEIAHLVGTATNVDCCCLVTVTNEESTETTTANWCSDEFLGVPLSNEMFSTERFLMELPVLQCAVEPRNIDEISIIRNSLVVGCQHLPLPIKAVLAISTRFGGKTNGVISLIKFQSHDWDDSAKNILKTIEASCAIAFSQLTQAQLISSQQQHLQ | failed
9 | MINQATSPAAPISLTTKGLRWANLAFMLYLLLLAVAMVGSGFKWATGDQAKVLFEFASHPIAGLMIGLVATALIQSSSTVTSIIVGLVAGGLPVETAIPMVMGANIGTTVTNTLVSLGHMRCKEEFRRAFASATIHDFFNLLAVLIFLPLEMMFGILEKVSHWLVSPLLATGDMSMKGFDFIKPITKPVITGLETQLSVLGNTFGGVALIVLGIATIFVAITVMGKLMKSLMVGRAREILQNAIGRGPLHGIASGTVVTVLVQSSSTTTSLMVPLVGSGVLKVREIYPFTLGANIGTCITALLAATAVSGEFAVFALQIALVHLSFNLMATVLIYGIPFLRELPIKGAELISTWACKSKMVVVSYLLGVFVVIPGSILALTA | failed
